Columns and labels:
[1] = biological target: histidine-tagged human C5a (human) (UniProt P01031); assay: SPR; Biacore X100; His-C5a captured on a Ni-activated NTA chip at 25 RU; S512A-ScpA or S512A-79ΔPro flowed at 5.625-90 nM, 30 uL/min, association 180 s, dissociation 200 s; 10 mM HEPES-KOH pH 7.5, 150 mM NaCl, 0.005% Tween 20, 50 uM EDTA; global fit with a Langmuir model; triplicates
[2] = biological target: histidine-tagged human C5a (human) (UniProt P01031); assay: SPR; Biacore X100; His-C5a captured on a Ni-activated NTA chip at 25 RU; S512A-ScpA or S512A-79ΔPro flowed at 5.625-90 nM, 30 uL/min, association 180 s, dissociation 200 s; 10 mM HEPES-KOH pH 7.5, 150 mM NaCl, 0.005% Tween 20, 50 uM EDTA; global fit, Langmuir model; triplicates

| Substance | Kd [1] | Kd [2] | koff [1] | kon [1] |
| --- | --- | --- | --- | --- |
| S512A-ScpA, active site mutated Streptococcus pyogenes C5a peptidase (amino acids 32-1032) (from UniProt P15926 32-1032) | 25 nM | – | – | – |
| S512A-79ΔPro (active site mutated, propeptide truncated ScpA, amino acids 79-1032) (from UniProt P15926 79-1032) (enzyme) | – | 25 nM | – | – |
| S512A-ScpA (active site mutated Streptococcus pyogenes C5a peptidase, amino acids 32-1032) (from UniProt P15926 32-1032) (enzyme) | – | 35 nM | – | – |
| S512A-ScpA, active site mutated Streptococcus pyogenes C5a peptidase (amino acids 32-1032) (from UniProt P15926 32-1032) (enzyme) | – | – | 0.00638 s⁻¹ | 182000 M⁻¹ s⁻¹ |
| S512A-79ΔPro, active site mutated propeptide-truncated ScpA (amino acids 79-1032) (from UniProt P15926 79-1032) (enzyme) | 35 nM | – | 0.00467 s⁻¹ | 187000 M⁻¹ s⁻¹ |
